The values below come from the supplement of paper PMC5998384.

The test system of data set [1] is HeLa Kyoto. In words: melting temperature (median over replicates), in situ; higher = more thermally stable.
Data set [2] relates to HeLa Kyoto. In words: solubility in G1/S (NP-40 vs SDS abundance) (log2 ratio); higher = more soluble. The settings on record: cell cycle stage: G1/S.
The subject of data set [3] is HeLa Kyoto. The data set is described as follows: thermal stability score vs G1/S (z-score of summed log2 fold changes over temperatures); higher = more thermally stable than in G1/S.
For data set [4], the system named is HeLa Kyoto. In words: solubility change mitosis vs G1/S (difference of NP-40 vs SDS log2 ratios) (log2 ratio difference); higher = more soluble in mitosis.
Where [5] appears, read: cell cycle stage: early G1 (4.5 h after nocodazole release).
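Throughout, for melting temperature (median over replicates), in situ: HeLa Kyoto cells synchronized by double thymidine or nocodazole block, proteins quantified by TMT10plex mass spectrometry, three independent biological replicates.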
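Throughout, for solubility change mitosis vs G1/S (difference of NP-40 vs SDS log2 ratios): synchronized HeLa Kyoto cells (double thymidine block for G1/S, nocodazole release for mitosis), protein amounts in NP-40 versus SDS lysates quantified by mass spectrometry, three biological replicates.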
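Throughout, for solubility in G1/S (NP-40 vs SDS abundance): HeLa Kyoto cells arrested at G1/S by double thymidine block, proteins quantified by TMT10plex mass spectrometry in mild NP-40 versus SDS extracts, three biological replicates.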
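Throughout, for thermal stability score vs G1/S (z-score of summed log2 fold changes over temperatures): synchronized HeLa Kyoto cells, proteins quantified by TMT10plex mass spectrometry, three biological replicates, mitosis taken 0.5 h after nocodazole release, G1/S directly after double thymidine block.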

With “MADGPRCKRRKQANPRRNNVTNYNTVVETNSDSDDEDKLHIVEEESVTDAADCEGVPEDDLPTDQTVLPGRSSEREGNAKNCWEDDRKEGQEILGPEAQADEAGCTVKDDECESDAENEQNHDPNVEEFLQQQDTAVIFPEAPEEDQRQGTPEASGHDENGTPDAFSQLLTCPYCDRGYKRFTSLKEHIKYRHEKNEDNFSCSLCSYTFAYRTQLERHMTSHKSGRDQRHVTQSGCNRKFKCTECGKAFKYKHHLKEHLRIHSGEKPYECPNCKKRFSHSGSYSSHISSKKCISLIPVNGRPRTGLKTSQCSSPSLSASPGSPTRPQIRQKIENKPLQEQLSVNQIKTEPVDYEFKPIVVASGINCSTPLQNGVFTGGGPLQATSSPQGMVQAVVLPTVGLVSPISINLSDIQNVLKVAVDGNVIRQVLENNQANLASKEQETINASPIQQGGHSVISAISLPLVDQDGTTKIIINYSLEQPSQLQVVPQNLKKENPVATNSCKSEKLPEDLTVKSEKDKSFEGGVNDSTCLLCDDCPGDINALPELKHYDLKQPTQPPPLPAAEAEKPESSVSSATGDGNLSPSQPPLKNLLSLLKAYYALNAQPSAEELSKIADSVNLPLDVVKKWFEKMQAGQISVQSSEPSSPEPGKVNIPAKNNDQPQSANANEPQDSTVNLQSPLKMTNSPVLPVGSTTNGSRSSTPSPSPLNLSSSRNTQGYLYTAEGAQEEPQVEPLDLSLPKQQGELLERSTITSVYQNSVYSVQEEPLNLSCAKKEPQKDSCVTDSEPVVNVIPPSANPINIAIPTVTAQLPTIVAIADQNSVPCLRALAANKQTILIPQVAYTYSTTVSPAVQEPPLKVIQPNGNQDERQDTSSEGVSNVEDQNDSDSTPPKKKMRKTENGMYACDLCDKIFQKSSSLLRHKYEHTGKRPHECGICKKAFKHKHHLIEHMRLHSGEKPYQCDKCGKRFSHSGSYSQHMNHRYSYCKREAEERDSTEQEEAGPEILSNEHVGARASPSQGDSDERESLTREEDEDSEKEEEEEDKEMEELQEEKECEKPQGDEEEEEEEEEVEEEEVEEAENEGEEAKTEGLMKDDRAESQASSLGQKVGESSEQVSEEKTNEA [ZEB1]”, the melting temperature worked out at 52.8 °C in data set [1] (cell cycle stage: G1/S) and 53.9 °C in data set [1] (cell cycle stage: mitosis). Further, in data set [2], the “solubility in G1/S (log2)” value is -0.154. Further, the values for the thermal stability score in data set [3] (setting [5]) and in data set [3] (cell cycle stage: mitosis) were -0.796 and 2.75, respectively. Besides, the “solubility change mitosis (log2)” value in data set [4] is -0.0271.

Consider “MKLLLLHPAFQSCLLLTLLGLWRTTPEAHASSLGAPAISAASFLQDLIHRYGEGDSLTLQQLKALLNHLDVGVGRGNVTQHVQGHRNLSTCFSSGDLFTAHNFSEQSRIGSSELQEFCPTILQQLDSRACTSENQENEENEQTEEGRPSAVEVWGYGLLCVTVISLCSLLGASVVPFMKKTFYKRLLLYFIALAIGTLYSNALFQLIPEAFGFNPLEDYYVSKSAVVFGGFYLFFFTEKILKILLKQKNEHHHGHSHYASESLPSKKDQEEGVMEKLQNGDLDHMIPQHCSSELDGKAPMVDEKVIVGSLSVQDLQASQSACYWLKGVRYSDIGTLAWMITLSDGLHNFIDGLAIGASFTVSVFQGISTSVAILCEEFPHELGDFVILLNAGMSIQQALFFNFLSACCCYLGLAFGILAGSHFSANWIFALAGGMFLYISLADMFPEMNEVCQEDERKGSILIPFIIQNLGLLTGFTIMVVLTMYSGQIQIG [SLC39A14]”, for which the melting temperature in data set [1] (cell cycle stage: G1/S) was 55.3 °C; in data set [1] (cell cycle stage: mitosis) it was 59 °C. Besides, the “solubility in G1/S (log2)” value in data set [2] is -0.0657. In addition, the thermal stability score in data set [3] (setting [5]) came to 1.32; in data set [3] (cell cycle stage: mitosis), 2.81. In data set [4], the “solubility change mitosis (log2)” value was -0.241.

As to “MAEGEDVGWWRSWLQQSYQAVKEKSSEALEFMKRDLTEFTQVVQHDTACTIAATASVVKEKLATEGSSGATEKMKKGLSDFLGVISDTFAPSPDKTIDCDVITLMGTPSGTAEPYDGTKARLYSLQSDPATYCNEPDGPPELFDAWLSQFCLEEKKGEISELLVGSPSIRALYTKMVPAAVSHSEFWHRYFYKVHQLEQEQARRDALKQRAEQSISEEPGWEEEEEELMGISPISPKEAKVPVAKISTFPEGEPGPQSPCEENLVTSVEPPAEVTPSESSESISLVTQIANPATAPEARVLPKDLSQKLLEASLEEQGLAVDVGETGPSPPIHSKPLTPAGHTGGPEPRPPARVETLREEAPTDLRVFELNSDSGKSTPSNNGKKGSSTDISEDWEKDFDLDMTEEEVQMALSKVDASGELEDVEWEDWE [BSDC1]”, the results for the melting temperature in data set [1] (cell cycle stage: G1/S) and in data set [1] (cell cycle stage: mitosis) were 53.3 °C and 53.5 °C, respectively. In addition, in data set [2], the “solubility in G1/S (log2)” value was found to be 0.378. Also, the figures for the thermal stability score in data set [3] (setting [5]) and in data set [3] (cell cycle stage: mitosis) were -1.16 and -2.92, respectively. Moreover, the “solubility change mitosis (log2)” value in data set [4] is -0.201.

“MAAVDLEKLRASGAGKAIGVLTSGGDAQGMNAAVRAVTRMGIYVGAKVFLIYEGYEGLVEGGENIKQANWLSVSNIIQLGGTIIGSARCKAFTTREGRRAAAYNLVQHGITNLCVIGGDGSLTGANIFRSEWGSLLEELVAEGKISETTARTYSHLNIAGLVGSIDNDFCGTDMTIGTDSALHRIMEVIDAITTTAQSHQRTFVLEVMGRHCGYLALVSALASGADWLFIPEAPPEDGWENFMCERLGETRSRGSRLNIIIIAEGAIDRNGKPISSSYVKDLVVQRLGFDTRVTVLGHVQRGGTPSAFDRILSSKMGMEAVMALLEATPDTPACVVTLSGNQSVRLPLMECVQMTKEVQKAMDDKRFDEATQLRGGSFENNWNIYKLLAHQKPPKEKSNFSLAILNVGAPAAGMNAAVRSAVRTGISHGHTVYVVHDGFEGLAKGQVQEVGWHDVAGWLGRGGSMLGTKRTLPKGQLESIVENIRIYGIHALLVVGGFEAYEGVLQLVEARGRYEELCIVMCVIPATISNNVPGTDFSLGSDTAVNAAMESCDRIKQSASGTKRRVFIVETMGGYCGYLATVTGIAVGADAAYVFEDPFNIHDLKVNVEHMTEKMKTDIQRGLVLRNEKCHDYYTTEFLYNLYSSEGKGVFDCRTNVLGHLQQGGAPTPFDRNYGTKLGVKAMLWLSEKLREVYRKGRVFANAPDSACVIGLKKKAVAFSPVTELKKDTDFEHRMPREQWWLSLRLMLKMLAQYRISMAAYVSGELEHVTRRTLSMDKGF [PFKL]”: the melting temperature in data set [1] (cell cycle stage: G1/S) was 58.6 °C; in data set [1] (cell cycle stage: mitosis), 58.1 °C. In addition, the “solubility in G1/S (log2)” value in data set [2] is -0.0607. Also, the thermal stability score is -1.97 in data set [3] (setting [5]) and -2.04 in data set [3] (cell cycle stage: mitosis). Further, the “solubility change mitosis (log2)” value in data set [4] is -0.179.

Turning to RAB35, the melting temperature is 56.3 °C in data set [1] (cell cycle stage: G1/S) and 56.2 °C in data set [1] (cell cycle stage: mitosis). In addition, in data set [2], the “solubility in G1/S (log2)” value was -0.0302. The thermal stability score is -0.529 in data set [3] (setting [5]) and -1.17 in data set [3] (cell cycle stage: mitosis). For the same substance, in data set [4], the “solubility change mitosis (log2)” value turned out to be 0.0226.
